Data on seven molecules can be found in patent publication US6642368B1, “Programmed cell death and caspase-12” (The General Hospital Corporation, priority 1998, dated 2003).

The target of data set [1] is T1, caspase-12Δ2 (Mus musculus, UniProt O08736).
T1 construct: made in house; host or cells: E. coli BL21(DE3) pLys
Kind of data set: Inhibition of cleavage of pro-caspase-12 by purified caspase-12Δ2. As to conditions: preincubation 1 mM DTNB 25° C. 60 min or 2 mM iodoacetamide 0° C. 60 min. The class given is biochemical. The protocol: ICE, casp-2 and casp-3 were cloned into a pET-15b vector (Novagen) and their expression was induced in the presence of 0.2-0.3 mM IPTG (Wang, S., et a., J. Biol. Chem. 271:20580-20587 (1996); Cryns, V. L., et al., J. Biol. Chem. 271:31277-31282 (1996)). Bacterial lysates containing the ICE-like proteases were prepared as described (Wang, S., et al., J. Biol. Chem. 271:20580-20587 (1996); Cryns, V. L., et al., J. Biol. Chem. 271:31277-31282 (1996)). [^35S]-labeled proteins were prepared by in vitro transcription and translation using a TNT coupled reticulocyte lysate system (Promega) and [^35S]methionine (Amersham). Labeled proteins were incubated at 37° C. with purified caspase-12Δ2 or at 30° C. with E. coli lysates containing the caspase family members. The reaction mixture contained 25 mM Hepes (pH 7.5) with 5 mM EDTA, 5 mM dithiothreitol, 10% sucrose, 10 μg/ml leupeptin and 250 μM phenylmethylsulfonyl fluoride. Amount of proteins used for cleavage reaction were: 0.1 μg for partially purified caspase-12Δ2, 25-70 μg for E. coli lysate. […] Cleavage products were analyzed by either 10- or 15% SDS-polyacrylamide gel electrophoresis. […]

Data set [2] has as its system T2, caspase-12Δ (Gly95-Asn419 of caspase-12L, with an artificial initiation codon), [35S]-labeled.
T2 sequence: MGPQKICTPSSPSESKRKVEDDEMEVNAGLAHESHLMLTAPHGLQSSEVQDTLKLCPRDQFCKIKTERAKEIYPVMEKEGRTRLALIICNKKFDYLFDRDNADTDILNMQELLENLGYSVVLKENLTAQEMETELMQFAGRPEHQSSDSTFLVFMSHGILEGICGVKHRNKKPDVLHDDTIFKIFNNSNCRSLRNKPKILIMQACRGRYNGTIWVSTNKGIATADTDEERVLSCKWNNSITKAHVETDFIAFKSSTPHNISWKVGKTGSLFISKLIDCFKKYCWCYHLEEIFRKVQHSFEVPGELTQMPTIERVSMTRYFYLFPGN

Data set [3] concerns T3, pro-caspase-12 (caspase-12L, full-length precursor, 419 residues, 48 kDa).
T3 sequence: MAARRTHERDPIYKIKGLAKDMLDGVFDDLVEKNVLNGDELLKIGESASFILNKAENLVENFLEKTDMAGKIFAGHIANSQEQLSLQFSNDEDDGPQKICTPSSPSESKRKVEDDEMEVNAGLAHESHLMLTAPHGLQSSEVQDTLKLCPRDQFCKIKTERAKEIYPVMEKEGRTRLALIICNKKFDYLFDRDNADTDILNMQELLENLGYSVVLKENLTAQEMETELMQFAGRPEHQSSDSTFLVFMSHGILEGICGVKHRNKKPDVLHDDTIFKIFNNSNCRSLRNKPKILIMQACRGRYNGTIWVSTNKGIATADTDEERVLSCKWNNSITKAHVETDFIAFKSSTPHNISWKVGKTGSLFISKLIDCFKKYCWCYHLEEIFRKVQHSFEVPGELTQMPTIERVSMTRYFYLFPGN

Data set [4] has as its system Rat-1/bcl-2. Kind of data set: Effect of cell death suppressor bcl-2 on caspase-12 killing activity. It counts as cell-based. The procedure:
FIGS. 5A-5B. Effect of cell death suppressors on the killing activity of caspase-12. […] Cell death was assayed as described in FIG. 4C. […] The data from transfection of the parental cell line, Rat-1 (FIG. 4C), are included in the figures for comparison. The lacZ construct was also used for transfection as a control.
To determine if expression of bcl-2 and crmA can inhibit apoptosis induced by casp-12 overexpression, casp-12L-lacZ fusion construct was transfected into stable cell lines of Rat-1 that overexpresses either bcl-2 or crmA (Miura, M., et al., Cell 75:653-660 (1993)). Cell death was assayed as described above (Example 3). […] The magnitude of the bcl-2 suppression against toxicity of casp-12 overexpression was about 10% (60% for Rat-1, 50% for Rat-1/bcl-2) which is much smaller than that observed for ICE and casp-2 (FIG. 5A; Wang, L., et al., Cell 78:739-750 (1994)).

In data set [5] the test system is Rat-1 cells. The data set can be described thus: Cell death induced by transient overexpression of lacZ fusion constructs, X-gal staining. The class given is cell-based. Particulars: lacZ fusion construct, 24 hr after transfection. The text has this: FIGS. 4A-4C. Cell death induced by overexpression of caspase-12. […] The round cells expressing the casp-12L-lacZ fusion proteins show condensed and fragmented nuclei. […] The data shown are the percentage of round blue cells among total number of blue cells counted. In each transfection, over 200 blue cells were randomly chosen and counted. The data of Rat-1 cells collected from at least three independent experiments. The constructs used were: casp-12L-lacZ, casp-12S-lacZ, casp-12Δ-lacZ, ICE-lacZ, lacZ. Rat embryonic fibroblast cells (REF) were also transfected with either casp-12L-lacZ or lacZ.
To examine if expression of caspase-12 induces apoptosis, a transient expression system was used to overexpress caspase-12 in mammalian cells. […] Transfected cells are easily detected by staining with X-gal because of the β-galactosidase activity of lacZ. Expression constructs of casp-12L and casp-12S fused with lacZ gene in pcDNA3 vector, which contains the cytomegalovirus (CMV) promoter, were generated. These expression constructs were introduced into Rat-1 cells by transfection, and the expression of the genes were examined 24 hr after transfection using X-gal reaction.
Rat-1, rat embryonic fibroblast cells, NG108-15, HeLa and COS-1 were maintained in culture at 37° C. with 5% CO2 in Dulbecco's modified Eagle's medium containing 10% (v/v) fetal bovine serum (BioWhittaker) and 50 units/ml penicillin and 50 μg/ml streptomycin (Sigma). The day before transfection, cells were seeded at a density of 1.3×10^4 cells/cm^2. Expression constructs were transferred to cells with either calcium phosphate or lipofectamine (GIBCO BRL) as previously described (Miura, M., et al., Cell 75:653-660 (1993); Kumar, S., et al., Genes and Development 8:1613-1626 (1994); Wang, L., et al., Cell 78:739-750 (1994)). The expression of chimeric genes in cells was detected by staining of cells with 5-bromo-4-chloro-3-indolyl β-D-galactoside (X-gal) as previously described (Miura, M., et al., Cell 75:653-660 (1993); Kumar, S., et al., Genes and Development 8:1613-1626 (1994); Wang, L., et al., Cell 78:739-750 (1994)). Immunostaining of transfected cells was done as previously described using mouse monoclonal anti-lacZ antibody (Miura, M., et al., Cell 75:653-660 (1993); Kumar, S., et al., Genes and Development 8:1613-1626 (1994); Wang, L., et al., Cell 78:739-750 (1994)).

In the case of `NC(=O)CI` [iodoacetamide], the “inhibition of proteolytic activity of caspase-12Δ2 by pretreatment with thiol reagent” value in data set [1] was “completely inhibited”. Take “caspase-3 (E. coli lysate, expressed from pET-15b)”: the “in vitro cleavage of the [35S]-labeled truncated form” value in data set [2] is “Caspase-3 treatment of the truncated form did not produce any smaller fragments”. For the same molecule, the “in vitro cleavage of [35S]-labeled caspase-12 precursor by E. coli lysate containing the caspase” value in data set [3] is “caspase-2 and caspase-3 can cleave pro-caspase-12 protein, generating smaller fragments of about 40 kDa”. As for “Bcl-2: mammalian cell death suppressor, homolog of C. elegans ced-9”, the “magnitude of bcl-2 suppression against toxicity of casp-12 overexpression” value in data set [4] (60% for Rat-1 versus 50% for Rat-1/bcl-2) was “about 10%”. Besides, in data set [4] (Rat-1/bcl-2, FIG. 5A), the “inhibition of cell death induced by overexpression of casp-12” value is given as “only very weakly inhibited”.

As to `O=C(O)c1cc(SSc2ccc([N+](=O)[O-])c(C(=O)O)c2)ccc1[N+](=O)[O-]` [5,5′-dithio-bis(2-nitrobenzoic acid)], the “inhibition of proteolytic activity of caspase-12Δ2 by pretreatment with thiol reagent” value in data set [1] is listed as “completely inhibited”. For the molecule “caspase-2 (E. coli lysate, expressed from pET-15b)”, the “in vitro cleavage of [35S]-labeled caspase-12 precursor by E. coli lysate containing the caspase” value in data set [3] is “Cleavage of pro-caspase-12 by caspase-2 generated a fragment of about 40 kDa at a lower cleavage efficiency, compared to caspase-3 digestion”.

B1: caspase-12S: alternatively spliced short form of caspase-12, 349 amino acid residues (SEQ ID NO:14) (protein)
chain: MAARRTHERDPIYKIKEFSNDEDDGPQKICTPSSPSESKRKVEDDEMEVNAGLAHESHLMLTAPHGLQSSEVQDTLKLCPRDQFCKIKTERAKEIYPVMEKEGRTRLALIICNKKFDYLFDRDNADTDILNMQELLENLGYSVVLKENLTAQEMETELMQFAGRPEHQSSDSTFLVFMSHGILEGICGVKHRNKKPDVLHDDTIFKIFNNSNCRSLRNKPKILIMQACRGRYNGTIWVSTNKGIATADTDEERVLSCKWNNSITKAHVETDFIAFKSSTPHNISWKVGKTGSLFISKLIDCFKKYCWCYHLEEIFRKVQHSFEVPGELTQMPTIERVSMTRYFYLFPGN
modifications: lacZ fusion
On to B1, for which the “percentage of cell death (round blue cells among total blue cells)” value in data set [5] is “about 60%”.

B2: caspase-12Δ: truncated caspase-12, amino acid residues 95-419 of SEQ ID NO:2 (protein)
chain: GPQKICTPSSPSESKRKVEDDEMEVNAGLAHESHLMLTAPHGLQSSEVQDTLKLCPRDQFCKIKTERAKEIYPVMEKEGRTRLALIICNKKFDYLFDRDNADTDILNMQELLENLGYSVVLKENLTAQEMETELMQFAGRPEHQSSDSTFLVFMSHGILEGICGVKHRNKKPDVLHDDTIFKIFNNSNCRSLRNKPKILIMQACRGRYNGTIWVSTNKGIATADTDEERVLSCKWNNSITKAHVETDFIAFKSSTPHNISWKVGKTGSLFISKLIDCFKKYCWCYHLEEIFRKVQHSFEVPGELTQMPTIERVSMTRYFYLFPGN
modifications: lacZ fusion
Regarding B2, the “percentage of cell death (round blue cells among total blue cells)” value in data set [5] stood at 60%.
